Measured values reported in patent publication USRE47150 (Bayer, dated 2018).
Substitutions are numbered along the chain they refer to. Numbers in names are those of the source.

How the values were obtained:
[1] = target: T1, mouse tissue factor pathway inhibitor (TFPI) (mouse, UniProt O54819 29-289, limits assumed); assay: competitive ELISA
T1 construct: bought; also called mTFPI; murine TFPI
T1 sequence (looked up): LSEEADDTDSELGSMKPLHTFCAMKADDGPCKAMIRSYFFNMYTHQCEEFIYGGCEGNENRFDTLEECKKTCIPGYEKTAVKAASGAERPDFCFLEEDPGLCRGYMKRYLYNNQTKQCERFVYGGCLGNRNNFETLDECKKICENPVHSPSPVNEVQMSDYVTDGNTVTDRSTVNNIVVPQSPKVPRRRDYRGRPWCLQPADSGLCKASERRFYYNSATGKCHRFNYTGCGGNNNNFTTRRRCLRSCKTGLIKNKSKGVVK

[2] = target: T2, human tissue factor pathway inhibitor (TFPI) (human, UniProt P10646 29-304, limits assumed); assay: competitive ELISA
T2 construct: bought; also called hTFPI; human TFPI
T2 sequence (looked up): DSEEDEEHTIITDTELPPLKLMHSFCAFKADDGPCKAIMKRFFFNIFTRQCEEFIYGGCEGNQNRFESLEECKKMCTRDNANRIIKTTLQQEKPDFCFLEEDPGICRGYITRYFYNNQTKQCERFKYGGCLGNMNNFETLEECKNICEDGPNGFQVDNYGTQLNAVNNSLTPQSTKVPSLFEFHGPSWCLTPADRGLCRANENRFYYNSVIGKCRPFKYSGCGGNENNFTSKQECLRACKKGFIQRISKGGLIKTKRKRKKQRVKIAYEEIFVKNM

[3] = target: T1, mouse tissue factor pathway inhibitor …; assay: equilibrium ELISA
[4] = target: T2, human tissue factor pathway inhibitor …; assay: competitive ELISA; remark: listed apart in the source

B1: 2A8 HC S35D+S55R+S56G+K99L/LC Y48F+N51V+D91W (Fab, V domains shown)
VH: QVQLVESGGGLVQPGGSLRLSCAASGFTFRSYGMDWVRQAPGKGLEWVSSIRGSRGSTYYADSVKGRFTISRDNSKNTLYLQMNSLRAEDTAVYYCARLYRYWFDYWGQGTLVTVSS
VL: DIELTQPPSVSVAPGQTARISCSGDNLRNYYAHWYQQKPGQAPVVVIFYDVNRPSGIPERFSGSNSGNTATLTISGTQAEDEADYYCQSWWDGVPVFGGGTKLTVLG
variant/HC_K99L [1]: 18.7 ratio | variant/HC_K99L [2]: 21.4 ratio

B2: 2A8 HC S35D+S56G+K99L/LC Y48F+D91L+V96W (Fab, V domains shown)
VH: B1 VH with R55S
VL: B1 VL with V51N, W91L, V96W
variant/HC_K99L [1]: 16.9 ratio | variant/HC_K99L [2]: 17.8 ratio

B3: 2A8 HC S35L+S54F+K99V/LC Y48F+D91K (Fab, V domains shown)
VH: B1 VH with D35L, S54F, R55S, G56S, L99V
VL: B1 VL with V51N, W91K
variant/HC_K99L [1]: 3.1 ratio | variant/HC_K99L [2]: 5 ratio

B4: 4B7 HC_D62I (Fab, V domains shown)
VH: QVQLQQSGPGLVKPSQTLSLTCAISGDSVSSNSAAWSWIRQSPGRGLEWLGIIYKRSKWYNIYAVSVKSRITINPDTSKNQFSLQLNSVTPEDTAVYYCARWHSDKHWGFDYWGQGTLVTVSS
VL: DIVMTQSPLSLPVTPGEPASISCRSSQSLVFSDGNTYLNWYLQKPGQSPQLLIYKGSNRASGVPDRFSGSGSGTDFTLKISRVEAEDVGVYYCQQYDSYPLTFGQGTKVEIKR
variant/wild-type [3]: 44.4 ratio | variant/wild-type [4]: 9.8 ratio

B5: 4B7 HC_D62L (Fab, V domains shown)
VH: B4 VH with I62L
VL: B4 VL
variant/wild-type [3]: 22.9 ratio | variant/wild-type [4]: 6.8 ratio

B6: 4B7 HC_D62N (Fab, V domains shown)
VH: B4 VH with I62N
VL: B4 VL
variant/wild-type [3]: 146 ratio | variant/wild-type [4]: 52.3 ratio

B7: 4B7 HC_D62Q (Fab, V domains shown)
VH: B4 VH with I62Q
VL: B4 VL
variant/wild-type [3]: 142 ratio | variant/wild-type [4]: 20.6 ratio

B8: 4B7 HC_D62S (Fab, V domains shown)
VH: B4 VH with I62S
VL: B4 VL
variant/wild-type [3]: 146 ratio | variant/wild-type [4]: 29.3 ratio

B9: 4B7 HC_D62V (Fab, V domains shown)
VH: B4 VH with I62V
VL: B4 VL
variant/wild-type [3]: 95 ratio | variant/wild-type [4]: 31.9 ratio

B10: 4B7 HC_G109A LC_D33R (Fab, V domains shown)
VH: B4 VH with I62D, G109A
VL: B4 VL with D33R
variant/wild-type [3]: 8 ratio | variant/wild-type [4]: 3.8 ratio

B11: 4B7 HC_H103D (Fab, V domains shown)
VH: B4 VH with I62D, H103D
VL: B4 VL
variant/wild-type [3]: 12.9 ratio | variant/wild-type [4]: 2.4 ratio

B12: 4B7 HC_H103G (Fab, V domains shown)
VH: B4 VH with I62D, H103G
VL: B4 VL
variant/wild-type [3]: 10.7 ratio | variant/wild-type [4]: 1.4 ratio

B13: 4B7 HC_H107M (Fab, V domains shown)
VH: B4 VH with I62D, H107M
VL: B4 VL
variant/wild-type [3]: 5.6 ratio | variant/wild-type [4]: 8.1 ratio

B14: 4B7 HC_H107M LC_F31I (Fab, V domains shown)
VH: B4 VH with I62D, H107M
VL: B4 VL with F31I
variant/wild-type [3]: 9.2 ratio | variant/wild-type [4]: 1.7 ratio

B15: 4B7 HC_K58M HC_D62N (Fab, V domains shown)
VH: B4 VH with K58M, I62N
VL: B4 VL
variant/wild-type [3]: 15.2 ratio | variant/wild-type [4]: 6.6 ratio

B16: 4B7 HC_N32D (Fab, V domains shown)
VH: B4 VH with N32D, I62D
VL: B4 VL
variant/wild-type [3]: 6 ratio | variant/wild-type [4]: 3.8 ratio

B17: 4B7 HC_N32E (Fab, V domains shown)
VH: B4 VH with N32E, I62D
VL: B4 VL
variant/wild-type [3]: 2.1 ratio | variant/wild-type [4]: 3.2 ratio

B18: 4B7 HC_N61G (Fab, V domains shown)
VH: B4 VH with N61G, I62D
VL: B4 VL
variant/wild-type [3]: 1.4 ratio | variant/wild-type [4]: 2.2 ratio

B19: 4B7 HC_N61G HC_D62V (Fab, V domains shown)
VH: B4 VH with N61G, I62V
VL: B4 VL
variant/wild-type [3]: 31.1 ratio | variant/wild-type [4]: 8 ratio

B20: 4B7 HC_S30R HC_S57K (Fab, V domains shown)
VH: B4 VH with S30R, S57K, I62D
VL: B4 VL
variant/wild-type [3]: 6.6 ratio | variant/wild-type [4]: 1.6 ratio

B21: 4B7 HC_S33G (Fab, V domains shown)
VH: B4 VH with S33G, I62D
VL: B4 VL
variant/wild-type [3]: 6.5 ratio | variant/wild-type [4]: 1.5 ratio

B22: 4B7 HC_S57K (Fab, V domains shown)
VH: B4 VH with S57K, I62D
VL: B4 VL
variant/wild-type [3]: 6.5 ratio | variant/wild-type [4]: 1.7 ratio

B23: 4B7 HC_S57R (Fab, V domains shown)
VH: B4 VH with S57R, I62D
VL: B4 VL
variant/wild-type [4]: 2 ratio

B24: 4B7 HC_Y112D (Fab, V domains shown)
VH: B4 VH with I62D, Y112D
VL: B4 VL
variant/wild-type [3]: 5.7 ratio | variant/wild-type [4]: 2.9 ratio

B25: 4B7 LC_D33F (Fab, V domains shown)
VH: B4 VH with I62D
VL: B4 VL with D33F
variant/wild-type [3]: 7 ratio | variant/wild-type [4]: 5.3 ratio

B26: 4B7 LC_D33F LC_Y54F (Fab, V domains shown)
VH: B4 VH with I62D
VL: B4 VL with D33F, Y54F
variant/wild-type [3]: 7.9 ratio | variant/wild-type [4]: 4.3 ratio

B27: 4B7 LC_D33R (Fab, V domains shown)
VH: B4 VH with I62D
VL: B4 VL with D33R
variant/wild-type [3]: 7.2 ratio | variant/wild-type [4]: 3.6 ratio

B28: 2A8 HC S35D+S55R+K99L/LC D1S+I2Y+A13S+S21T+R28P+N29K+Y48F+N51V+E80M+S89A+D91W+D92S+G93S+V94T (Fab, V domains shown)
VH: B1 VH with G56S
VL: SYELTQPPSVSVSPGQTARITCSGDNLPKYYAHWYQQKPGQAPVVVIFYDVNRPSGIPERFSGSNSGNTATLTISGTQAMDEADYYCQAWWSSTPVFGGGTKLTVLG
variant/HC_K99L [1]: 16.8 ratio | variant/HC_K99L [2]: 21.4 ratio

B29: 2A8 HC Q1E+R30S+S35D+S55R+S56G+K99L/LC D1S+I2Y+A13S+S21T+R28P+Y48F+N51V+E80M+S89A+D91W+D92S+G93S+V94T (Fab, V domains shown)
VH: B1 VH with Q1E, R30S
VL: B28 VL with K29N
variant/HC_K99L [1]: 12.3 ratio | variant/HC_K99L [2]: 18.8 ratio

B30: 2A8 HC Q1E+R30S+S35D+S55R+S56G+K99L/LC D1S+I2Y+A13S+S21T+R28P+N29K+Y48F+N51V+E80M+D91W (Fab, V domains shown)
VH: B1 VH with Q1E, R30S
VL: B28 VL with A89S, S92D, S93G, T94V
variant/HC_K99L [1]: 15.5 ratio | variant/HC_K99L [2]: 19.8 ratio

B31: 2A8 HC Q1E+R30S+S35D+S55R+S56G+K99L/LC D1S+I2Y+A13S+S21T+R28P+Y48F+N51V+E80M+D91W (Fab, V domains shown)
VH: B1 VH with Q1E, R30S
VL: B28 VL with K29N, A89S, S92D, S93G, T94V
variant/HC_K99L [1]: 15.1 ratio | variant/HC_K99L [2]: 18.7 ratio

B32: 2A8 HC S31V+I51D+S55R+K99V/LC D1S+I2Y+A13S+S21T+R28P+N29K+Y48F+Y49R+N51S+E80M+D91L+D92S+V94T+V96W (Fab, V domains shown)
VH: B1 VH with S31V, D35S, I51D, G56S, L99V
VL: B28 VL with Y49R, V51S, A89S, W91L, S93G, V96W
variant/HC_K99L [1]: 2.4 ratio | variant/HC_K99L [2]: 2.2 ratio

B33: 2A8 HC Q1E+S31V+S50A+I51D+S55R+S56G+K99V/LC D1S+I2Y+A13S+S21T+R28P+N29K+Y48F+N51S+E80M+D91L+D92S+V94T+V96W (Fab, V domains shown)
VH: B1 VH with Q1E, S31V, D35S, S50A, I51D, L99V
VL: B28 VL with V51S, A89S, W91L, S93G, V96W
variant/HC_K99L [1]: 7.1 ratio | variant/HC_K99L [2]: 11.4 ratio

B34: 2A8 HC Q1E+S31V+S50A+I51D+S55R+S56G+K99V/LC D1S+I2Y+A13S+S21T+R28P+N29K+Y48F+E80M+D91L+D92S+V94T+V96W (Fab, V domains shown)
VH: B1 VH with Q1E, S31V, D35S, S50A, I51D, L99V
VL: B28 VL with V51N, A89S, W91L, S93G, V96W
variant/HC_K99L [1]: 5.9 ratio | variant/HC_K99L [2]: 9.8 ratio

B35: 2A8 HC S31V+I51D+S55R+K99V/LC D1S+I2Y+A13S+S21T+R28P+N29K+Y48F+E80M+D91L+D92S+V94T+V96W (Fab, V domains shown)
VH: B1 VH with S31V, D35S, I51D, G56S, L99V
VL: B28 VL with V51N, A89S, W91L, S93G, V96W
variant/HC_K99L [1]: 15.4 ratio | variant/HC_K99L [2]: 18 ratio
